From PMC3072150 (Biochemistry, 2009)

Tests used:
[1] = molecular target: DnaC protein (hexamer assembled on DnaB) in the binary DnaB–DnaC complex (Escherichia coli, UniProt P0AEF0); test: fluorescence titration; format: binding
[2] = molecular target: DnaB helicase;DnaC protein (Escherichia coli;Escherichia coli, UniProt P0ACB0;P0AEF0 1-471;1-245, |); test: fluorescence titration and sedimentation velocity of cofactor
DnaB helicase = DnaB helicase (Escherichia coli, UniProt P0ACB0 1-471); test: fluorescence titration
DnaB helicase, sequence (P0ACB0 whole entry): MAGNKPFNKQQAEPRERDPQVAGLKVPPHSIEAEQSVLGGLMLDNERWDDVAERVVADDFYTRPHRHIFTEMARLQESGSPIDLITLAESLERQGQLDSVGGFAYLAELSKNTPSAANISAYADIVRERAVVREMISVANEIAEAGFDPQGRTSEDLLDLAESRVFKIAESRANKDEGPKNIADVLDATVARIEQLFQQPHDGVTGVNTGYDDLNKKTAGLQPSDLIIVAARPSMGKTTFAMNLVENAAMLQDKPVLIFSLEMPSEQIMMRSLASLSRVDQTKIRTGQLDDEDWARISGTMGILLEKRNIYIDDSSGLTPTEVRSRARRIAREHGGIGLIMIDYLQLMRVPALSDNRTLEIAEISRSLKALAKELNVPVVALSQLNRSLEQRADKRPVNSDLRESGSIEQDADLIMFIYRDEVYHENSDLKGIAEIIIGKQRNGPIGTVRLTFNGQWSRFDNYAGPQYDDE

DnaB helicase;DnaC protein, sequence (P0ACB0 whole entry, chain 1 of 2): as the sequence (P0ACB0 whole entry) above
DnaB helicase;DnaC protein, sequence (P0AEF0 whole entry, chain 2 of 2): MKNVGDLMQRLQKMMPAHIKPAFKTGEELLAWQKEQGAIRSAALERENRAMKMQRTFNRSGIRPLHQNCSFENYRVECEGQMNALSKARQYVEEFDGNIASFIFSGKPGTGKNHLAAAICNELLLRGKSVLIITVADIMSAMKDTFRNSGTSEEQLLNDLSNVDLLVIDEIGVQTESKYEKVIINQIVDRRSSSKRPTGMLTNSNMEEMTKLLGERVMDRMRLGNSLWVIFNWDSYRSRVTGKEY
DnaC protein (hexamer assembled on DnaB) in the binary DnaB–DnaC complex, sequence (P0AEF0 whole entry): as the sequence (P0AEF0 whole entry, chain 2 of 2) above
DnaC protein (hexamer assembled on DnaB) in the binary DnaB–DnaC complex, sequence (P0ACB0 2-471 partner): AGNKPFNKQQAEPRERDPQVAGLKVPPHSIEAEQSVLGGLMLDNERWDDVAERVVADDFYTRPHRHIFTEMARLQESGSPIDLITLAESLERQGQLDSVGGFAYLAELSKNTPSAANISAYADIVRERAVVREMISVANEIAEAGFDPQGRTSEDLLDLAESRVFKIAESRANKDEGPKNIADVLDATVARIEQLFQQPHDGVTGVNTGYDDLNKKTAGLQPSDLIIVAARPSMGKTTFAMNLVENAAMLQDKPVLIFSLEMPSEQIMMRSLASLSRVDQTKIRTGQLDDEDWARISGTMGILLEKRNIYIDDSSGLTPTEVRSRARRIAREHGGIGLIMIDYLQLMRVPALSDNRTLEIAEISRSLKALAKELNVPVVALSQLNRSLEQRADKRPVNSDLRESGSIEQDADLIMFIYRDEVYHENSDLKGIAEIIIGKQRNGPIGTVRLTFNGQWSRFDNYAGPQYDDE

Kd [1]	Molecule	binding result [2]	binding result (DnaB helicase)
4.17 µM	CNc1ccccc1C(=O)O[C@H]1[C@@H](O)[C@H](n2cnc3c(N)ncnc32)O[C@@H]1CO[P@@](=O)(O)O[P@](=O)(O)OP(=O)(O)O [MANT-ATP, 3′-O-(N-methylanthraniloyl)adenosine 5′-triphosphate]	–	–
–	AAAAAAAAAAAAAAAAAAAA (ssDNA) [dA(pdA)19 (ssDNA 20-mer)]	binds	binds
